Values joined by “and” are separate entries in the source; they are usually repeats but may differ in a detail not shown here. Identical values can stand only once.

This assay concerns the target Recombinant human transferrin (human) (UniProt P02787). The experiment in a line: SEC-MALS. For orientation: Size exclusion chromatography separates by hydrodynamic size, large species first.

In the case of “Recombinant human transferrin (from UniProt P02787 20-698) (natural protein)”, the percent dimer came to 12%; the percent trimer was determined as 2%; the stoichiometry N was 2 and 3.

The stoichiometry N is the number of molecules, sites or subunits per partner or assembly.

The values are drawn from publication doi:10.1101/742957.
